Assay results reported in article doi:10.1101/2025.05.13.653815, “Roles of the MO25 protein Pmo25 in contractile-ring stability and localization of the NDR kinase Sid2 during cytokinesis” (bioRxiv, 2025).

Experiments:
[1] = target: T1, MBP-Ync13-full length-6His (S. pombe, UniProt O13683 1-1237); assay: pull-down; Kd by supernatant depletion: various concentrations of MBP-Ync13 on amylose beads with a fixed low concentration of Pmo25-(19-329)-6His, 1 h at 4°C; supernatant on SDS-PAGE, Coomassie Blue; one site binding equation; conditions: both partners purified
T1 construct: pET21a-MBP: MBP-TEV-GGSGGS stands before Ync13, 6xHis after it; not shown: MBP, N-terminal, kept; His6, C-terminal, kept
T1 sequence (looked up): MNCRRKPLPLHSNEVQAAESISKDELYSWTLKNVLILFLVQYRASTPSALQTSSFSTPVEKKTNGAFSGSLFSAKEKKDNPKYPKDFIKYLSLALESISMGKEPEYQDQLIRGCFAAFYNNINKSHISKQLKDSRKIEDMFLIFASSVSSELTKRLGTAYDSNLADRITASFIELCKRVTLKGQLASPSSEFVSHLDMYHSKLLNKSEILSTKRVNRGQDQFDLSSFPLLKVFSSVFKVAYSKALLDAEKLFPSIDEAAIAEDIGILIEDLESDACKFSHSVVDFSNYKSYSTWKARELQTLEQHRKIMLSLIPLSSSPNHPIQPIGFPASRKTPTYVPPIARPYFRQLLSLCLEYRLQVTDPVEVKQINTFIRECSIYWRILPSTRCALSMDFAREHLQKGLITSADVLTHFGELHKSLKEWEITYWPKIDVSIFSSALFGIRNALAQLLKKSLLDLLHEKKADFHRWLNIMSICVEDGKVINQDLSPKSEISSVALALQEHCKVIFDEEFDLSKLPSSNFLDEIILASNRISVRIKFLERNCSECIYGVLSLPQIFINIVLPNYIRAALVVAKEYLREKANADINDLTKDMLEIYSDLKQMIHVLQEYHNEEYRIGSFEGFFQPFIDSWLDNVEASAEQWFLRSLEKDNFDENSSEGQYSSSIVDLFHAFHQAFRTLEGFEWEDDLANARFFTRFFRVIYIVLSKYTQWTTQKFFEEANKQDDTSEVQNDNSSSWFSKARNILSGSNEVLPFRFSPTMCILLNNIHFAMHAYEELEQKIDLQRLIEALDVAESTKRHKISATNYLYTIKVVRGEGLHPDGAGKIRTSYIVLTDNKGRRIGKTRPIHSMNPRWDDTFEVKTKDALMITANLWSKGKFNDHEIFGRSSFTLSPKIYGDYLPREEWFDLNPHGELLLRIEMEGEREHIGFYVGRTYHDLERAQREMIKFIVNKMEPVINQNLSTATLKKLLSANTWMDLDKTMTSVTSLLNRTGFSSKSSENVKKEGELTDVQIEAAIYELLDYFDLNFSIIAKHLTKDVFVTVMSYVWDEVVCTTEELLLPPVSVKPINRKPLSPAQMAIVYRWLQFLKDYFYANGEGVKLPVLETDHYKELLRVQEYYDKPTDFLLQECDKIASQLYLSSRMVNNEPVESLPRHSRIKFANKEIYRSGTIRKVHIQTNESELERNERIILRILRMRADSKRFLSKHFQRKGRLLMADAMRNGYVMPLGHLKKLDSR

[2] = target: T2, MBP-Ync13-(591-1130)-6His (S. pombe, UniProt O13683 591-1130); assay: as above; conditions: both partners purified
T2 construct: The cloning of this truncation is not described; not shown: MBP, N-terminal, kept; His6, C-terminal, kept
T2 sequence (looked up): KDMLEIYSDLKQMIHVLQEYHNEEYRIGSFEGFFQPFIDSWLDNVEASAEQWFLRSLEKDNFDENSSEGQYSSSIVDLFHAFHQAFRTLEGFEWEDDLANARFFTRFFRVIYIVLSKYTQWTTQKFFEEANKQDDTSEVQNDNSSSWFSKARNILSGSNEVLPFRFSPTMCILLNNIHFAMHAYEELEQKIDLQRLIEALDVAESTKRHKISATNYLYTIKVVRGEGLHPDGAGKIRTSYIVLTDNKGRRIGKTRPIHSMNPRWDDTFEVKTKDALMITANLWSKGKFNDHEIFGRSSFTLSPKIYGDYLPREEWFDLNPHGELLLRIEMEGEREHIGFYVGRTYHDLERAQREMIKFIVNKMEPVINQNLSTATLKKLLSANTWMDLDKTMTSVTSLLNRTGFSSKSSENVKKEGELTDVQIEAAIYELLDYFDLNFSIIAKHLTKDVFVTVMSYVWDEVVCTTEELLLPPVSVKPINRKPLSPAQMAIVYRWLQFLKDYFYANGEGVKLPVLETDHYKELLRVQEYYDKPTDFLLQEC

Kd [1]: 0.49 µM | Kd [2]: 0.62 µM
B1: Pmo25-(19-329)-6His (domain or fragment, S. pombe, UniProt Q9P7Q8 19-329, looked up)
chain: LCDNLPKLEINNDKKKSFEEVSKCLQNLRVSLCGTAEVEPDADLVSDLSFQIYQSNLPFLLVRYLPKLEFESKKDTGLIFSALLRRHVASRYPTVDYMLAHPQIFPVLVSYYRYQEVAFTAGSILRECSRHEALNEVLLNSRDFWTFFSLIQASSFDMASDAFSTFKSILLNHKSQVAEFISYHFDEFFKQYTVLLKSENYVTKRQSLKLLGEILLNRANRSVMTRYISSAENLKLMMILLRDKSKNIQFEAFHVFKLFVANPEKSEEVIEILRRNKSKLISYLSAFHTDRKNDEQFNDERAFVIKQIERL
notes: pET21a, between the N-terminal T7 tag and the C-terminal 6xHis tag; not shown: His6, C-terminal, kept
